Results reported in the supplement of paper PMC9732359.
± gives the uncertainty stated by the source.

Assay: protein stability index of a GFP-peptide fusion (yeast GPS) (PSI 1-4); higher = more stable; sorted into four equal gates, so the index is relative within each strain
Method in brief: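 Mid-log yeast cultures in leucine-free medium, carrying a pooled plasmid library, were sorted into four equal gates by their GFP/Cherry fluorescence ratio. Each plasmid expressed Cherry along with GFP fused upstream of a tiled 17-residue yeast protein peptide. Plasmids recovered from each gate were PCR-amplified and Illumina-sequenced, with reads assigned to strains by barcodes. The protein stability index was obtained by summing each gate's read frequency weighted by its gate number.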

Row | Sequence | protein stability index (doa10∆) | protein stability index (pdr5∆) | protein stability index (san1∆) | protein stability index (ubr1∆)
1 | LSVMCGCGTVKRFNIGA [RPR2] | 3.16 ± 0.21 | 2.97 ± 0.12 | 3.14 ± 0.14 | 2.07 ± 0.18
2 | NDLRDMILNYNPSQGVS [UBP6] | 2.21 ± 0.072 | 3.23 ± 0.12 | 3.16 ± 0.077 | 3.18 ± 0.064
3 | IVHHPYQSLKQIVQVLK [SSN8] | 1.24 ± 0.061 | 1.58 ± 0.099 | 1.18 ± 0.14 | 1.25 ± 0.072
4 | SKQPNSAIRKCVRVQLI [RPS23A] | 2.69 ± 0.078 | 2.77 ± 0.064 | 1.79 ± 0.096 | 2.96 ± 0.045
5 | SESGSKLNVDQFISSRQ [POP1] | 3.27 ± 0.058 | 3.37 ± 0.063 | 3.29 ± 0.055 | 3.21 ± 0.068
6 | KKIGCYMFANLEFSIYH [CSN12] | 2.07 ± 0.071 | 1.95 ± 0.064 | 2.98 ± 0.06 | 2.51 ± 0.052
7 | YLKDNITLLTRQRELLI [GRR1] | 2.15 ± 0.061 | 2.25 ± 0.069 | 1.84 ± 0.076 | 1.76 ± 0.052
8 | SSGQDKKKKKGSNQKPK [RPT2] | 3.08 ± 0.21 | 2.92 ± 0.28 | – | 3.1 ± 0.15
9 | LQQELATTQDQVASIIE [NUT2] | 2.77 ± 0.059 | 2.95 ± 0.043 | 3.23 ± 0.053 | 2.98 ± 0.037
10 | PIAAPKKPRKPRQTKKA [PGD1] | 2.64 ± 0.11 | 3.18 ± 0.092 | 2.56 ± 0.082 | 3.09 ± 0.097
11 | TVQENELLKSSLQKAGS [AAR2] | 3.17 ± 0.11 | 3.21 ± 0.088 | 3.01 ± 0.073 | 3.13 ± 0.084
12 | SLLLKNYLNDMHDSNLQ [SKP1] | 2.31 ± 0.093 | 2.48 ± 0.05 | 1.81 ± 0.093 | 2.08 ± 0.05
13 | GASTVMKTKTINAQGEE [PRP8] | 3.31 ± 0.11 | 3.06 ± 0.15 | 3.2 ± 0.083 | 3.07 ± 0.07
14 | MKLDDSSKTRNVLNRIQ [ITC1] | 1.78 ± 0.082 | 1.3 ± 0.051 | 2.71 ± 0.12 | 1.38 ± 0.056
15 | GNDNLIKAPTVAADGKL [YLR335W/NUP2] | 2.46 ± 0.097 | 2.93 ± 0.09 | 2.56 ± 0.077 | 2.95 ± 0.072
16 | VKYINFGKTVKDGPFYT [RPC31] | 3 ± 0.1 | 2.84 ± 0.085 | 2.35 ± 0.061 | 2.29 ± 0.044
17 | ALDTVTNVLNFIKLQKI [FAS1] | 2.76 ± 0.069 | 2.04 ± 0.067 | 2.14 ± 0.13 | 2.15 ± 0.055
18 | EENGDSIKEHSTTMDGA [MED1] | 3.32 ± 0.19 | – | 3.21 ± 0.14 | 3.57 ± 0.14
19 | SIYDKWTDPNLKSSLAD [RPN1] | 2.99 ± 0.1 | 2.96 ± 0.067 | 2.88 ± 0.062 | 3.19 ± 0.054
20 | ELGEFFVNGVATSFSRK [FAS2] | 2.98 ± 0.07 | 2.6 ± 0.075 | 2.63 ± 0.1 | 2.69 ± 0.048
21 | RTMLELITQLDGFDPRG [RPT1] | 2.6 ± 0.061 | 2.81 ± 0.061 | 2.91 ± 0.066 | 2.73 ± 0.096
22 | EKADYEDEMMHEEDQKT [RPN12] | – | 2.97 ± 0.15 | – | 3.03 ± 0.17

Row | Sequence | protein stability index (doa10∆) | protein stability index (pdr5∆) | protein stability index (san1∆) | protein stability index (ubr1∆)
23 | TGGQTIDNGTGRTGNGN [MED6] | 3.06 ± 0.13 | 2.82 ± 0.066 | 3.26 ± 0.079 | 2.72 ± 0.063
24 | EYNEDSRLCTPIPVQGE [RPN13] | – | – | 2.27 ± 0.14 | 3.11 ± 0.28
25 | HLHDAVFVNTGLQNVRK [SWP82] | 2.99 ± 0.14 | 2.84 ± 0.076 | 2.77 ± 0.1 | 2.73 ± 0.088
26 | IQTVVISLLALPHSPLW [YML031W/NDC1] | 1.36 ± 0.076 | 1.58 ± 0.063 | 1.36 ± 0.1 | 2 ± 0.049
27 | STKTGTPSDLSESGSKL [POP1] | 3.4 ± 0.1 | 3.35 ± 0.088 | 3.24 ± 0.055 | 3.35 ± 0.048
28 | SALTSPTDSSKILQKRS [SIR3] | 2.99 ± 0.053 | 3.12 ± 0.054 | 2.92 ± 0.047 | 3.04 ± 0.039
29 | YSNEPFNTNFDDEFGDL [SNF6] | 3.02 ± 0.1 | 3 ± 0.093 | 2.99 ± 0.059 | 3.06 ± 0.042
30 | DETTVPSYYYYVDPETT [ROX3] | 2.99 ± 0.08 | 3.04 ± 0.072 | 3.01 ± 0.049 | 3.25 ± 0.065
31 | HLRYQPDGVVVHRDDPA [SNF6] | 2.91 ± 0.12 | 3.29 ± 0.1 | 2.94 ± 0.082 | 3.28 ± 0.08
32 | VKNKYNVGKQLSNEIIY [PRP28] | 2.35 ± 0.062 | 2.6 ± 0.069 | 2.36 ± 0.071 | 2.57 ± 0.052
33 | IGGSDAAFEKRYRVDLL [RPO21] | 3.32 ± 0.074 | 3.39 ± 0.067 | 3.25 ± 0.04 | 3.32 ± 0.053
34 | TAAEKKERLTKEAAAIA [RPL8B] | 2.15 ± 0.072 | 2.25 ± 0.09 | 1.91 ± 0.11 | 2.33 ± 0.05
35 | YKNHELLKLERKKTEAV [SNF2] | 3.14 ± 0.081 | 3.17 ± 0.074 | 3.08 ± 0.05 | 3.13 ± 0.064
36 | PSKLVITKLHLDKDRKA [RPL26A] | 1.73 ± 0.18 | 1.75 ± 0.086 | 1.75 ± 0.28 | 1.21 ± 0.099
37 | QKVSENFEAVFERLVPR [SMC3] | 2.53 ± 0.28 | – | – | –
38 | PSSMATLLKNLRKKLNF [YJR042W/NUP85] | 2.91 ± 0.078 | 2.73 ± 0.075 | 2.91 ± 0.079 | 2.89 ± 0.066
39 | RLLNTNVDGNIKIVYAL [RPS18A] | – | – | – | 3.27 ± 0.16
40 | TDLNQDSAAIIAATGLN [GRR1] | 1.62 ± 0.17 | 1.32 ± 0.1 | 1.43 ± 0.22 | 1.55 ± 0.097
41 | AGAVAPEDIWVRAVNTG [RPP0] | – | – | 1.93 ± 0.28 | 1.31 ± 0.29
42 | DISAAIVHSSDGHLQFL [DLS1] | 2.92 ± 0.056 | 2.85 ± 0.068 | 3.01 ± 0.048 | 2.8 ± 0.078
43 | SVKEDVKNNQELDQEYR [SMC4] | – | 3.53 ± 0.25 | – | 3.36 ± 0.14
44 | PSASLKLHHDLKLCLGD [YMR129W/POM152] | 3.06 ± 0.073 | 3.09 ± 0.07 | 2.92 ± 0.083 | 3.03 ± 0.054
